Target: complement C1q (Homo sapiens, UniProt P02745, C1q succinimidyl alkyne-labeled, Fz8 CRD IgG/Fc fusion)
Test: pull-down with ELISA quantification, Scatchard

Kd: 2.8 nM
B1: Frizzled-8 (Fz8/Fc) CRD (protein)
chain: AKELACQEITVPLCKGIGYNYTYMPNQFNHDTQDEAGLEVHQFWPLVEIQCSPDLKFFLCSMYTPICLEDYKKPLPPCRSVCERAKAGCAPLMRQYGFAWPDRMRCDRLPEQGNPDTLCMDY
